Measurements published in US11512128B2, “VEGF/DLL4 binding agents and uses thereof” (MEREO BIOPHARMA 5, INC., priority 2011, dated 2022).
Changes are numbered by the printed parent chain.

B1: 21M18: anti-DLL4 antibody, parental antibody (Hoey et al., 2009; U.S. Pat. No. 7,750,124) (antibody, V domains shown)
VH: QVQLVQSGAEVKKPGASVKISCKASGYSFTAYYIHWVKQAPGQGLEWIGYISSYNGATNYNQKFKGRVTFTTDTSTSTAYMELRSLRSDDTAVYYCARDYDYDVGMDYWGQGTLVTVSS
VL: DIVMTQSPDSLAVSLGERATISCRASESVDNYGISFMKWFQQKPGQPPKLLIYAASNQGSGVPDRFSGSGSGTDFTLTISSLQAEDVAVYYCQQSKEVPWTFGGGTKVEIK
B2: 219R45-MB-21R79: anti-VEGF/anti-DLL4 monovalent/bispecific antibody, heavy chains SEQ ID NO:7 and 6, light chains SEQ ID NO:8 (antibody)
heavy 1: QVQLVQSGAEVKKPGASVKVSCKASGYTFTNYWMHWVRQAPGQGLEWMGDINPSNGRTSYKEKFKRRVTLSVDKSSSTAYMELSSLRSEDTAVYFCTIHYDDKYYPLMDYWGQGTLVTVSSASTKGPSVFPLAPCSRSTSESTAALGCLVKDYFPEPVTVSWNSGALTSGVHTFPAVLQSSGLYSLSSVVTVPSSNFGTQTYTCNVDHKPSNTKVDKTVERKCCVECPPCPAPPVAGPSVFLFPPKPKDTLMISRTPEVTCVVVDVSHEDPEVQFNWYVDGVEVHNAKTKPREEQFNSTFRVVSVLTVVHQDWLNGKEYKCKVSNKGLPAPIEKTISKTKGQPREPQVYTLPPSREKMTKNQVSLTCLVKGFYPSDIAVEWESNGQPENNYKTTPPMLKSDGSFFLYSKLTVDKSRWQQGNVFSCSVMHEALHNHYTQKSLSLSPGK
heavy 2: QVQLVQSGAEVKKPGASVKISCKASGYSFTAYYIHWVKQAPGQGLEWIGYIANYNRATNYNQKFKGRVTFTTDTSTSTAYMELRSLRSDDTAVYYCARDYDYDVGMDYWGQGTLVTVSSASTKGPSVFPLAPCSRSTSESTAALGCLVKDYFPEPVTVSWNSGALTSGVHTFPAVLQSSGLYSLSSVVTVPSSNFGTQTYTCNVDHKPSNTKVDKTVERKCCVECPPCPAPPVAGPSVFLFPPKPKDTLMISRTPEVTCVVVDVSHEDPEVQFNWYVDGVEVHNAKTKPREEQFNSTFRVVSVLTVVHQDWLNGKEYKCKVSNKGLPAPIEKTISKTKGQPREPQVYTLPPSREEMTKNQVSLTCLVEGFYPSDIAVEWESNGQPENNYKTTPPMLDSDGSFFLYSELTVDKSRWQQGNVFSCSVMHEALHNHYTQKSLSLSPGK
light: DIVMTQSPDSLAVSLGERATISCRASESVDNYGISFMKWFQQKPGQPPKLLIYAASNQGSGVPDRFSGSGSGTDFTLTISSLQAEDVAVYYCQQSKEVPWTFGGGTKVEIKRTVAAPSVIFPPSDEQLKSGTASVVCLLNNFYPREAKVQWKVDNALQSGNSQESVTEQDSKDSTYSLSSTLTLSKADYEKHKVYACEVTHQGLSSPVTKSFNRGEC
modifications: 21R79 Heavy chain without predicted signal sequence; Light chain without predicted signal sequence
B3: 219R45-MB-21M18: anti-VEGF/anti-DLL4 monovalent/bispecific antibody, heavy chains SEQ ID NO:7 and 5, light chains SEQ ID NO:8 (antibody)
heavy 1: B2 heavy 1
heavy 2: B2 heavy 2 with A52S, N53S, R56G
light: B2 light
modifications: 21R79 Heavy chain without predicted signal sequence; 21M18 Heavy chain without predicted signal sequence; Light chain without predicted signal sequence

Columns and labels:
xenograft tumor models = conditions: Hoey et al., 2009; U.S. Pat. No. 7,750,124; cited from earlier work
OMP-C8 colon tumor cells = assay: Tumor growth in human skin graft model; assay type: in vivo, NOD-SCID mice; conditions: 25 mg/kg intraperitoneally once a week
Protocol: FIG. 5. Inhibition of colon tumor growth in vivo by an anti-VEGF/anti-DLL4 bispecific antibody. OMP-C8 colon tumor cells were injected subcutaneously into a human skin graft in NOD/SCID mice. Mice were treated with control antibody (-▪-), anti-hDLL4 antibody 21M18 (-▴-), anti-VEGF antibody bevacizumab (-∘-), or anti-VEGF/anti-DLL4 bispecific antibody 219R45-MB-21M18 (-▾-). Data is shown as tumor volume (photons/sec) over days post-treatment. Antibodies were administered intraperitoneally at a dose of 25 mg/kg once a week.
A human skin graft model has been reported which comprises a human skin graft and human tumor cells. A human skin graft is established and then human tumor cells are implanted into the skin graft, allowing the tumor cells to grow in an environment with human stroma and vasculature (Tahtis et al., 2003, Mol. Cancer Ther. 2:[…]). Human skin samples were obtained from neonatal foreskin tissue and grafted onto the lateral flank of NOD-SCID mice. After establishment of the skin graft, luciferase-labeled OMP-C8 colon tumor cells (20,000 cells) were injected intradermally into the human skin. Tumor growth was monitored by bioluminescence imaging using an IVIS imaging system (Caliper Life Sciences, Mountain View, Calif.). Tumors were allowed to grow until they reached 1.2×10^6 photons per second. Tumor-bearing mice (n=6 mice/group) were randomized and treated with control Ab, anti-hDLL4 antibody 21M18, anti-VEGF antibody bevacizumab, or anti-VEGF/anti-DLL4 bispecific antibody 219R45-MB-21M18. Animals were treated once a week and antibodies were administered intraperitoneally at a dose of 25 mg/kg. Tumor growth was monitored by bioluminescence imaging on the indicated days.

human DLL4-Fc = human DLL4-Fc (Homo sapiens, UniProt Q9NR61); assay: Biacore binding affinity (KD) to human DLL4; conditions: ratio of KD values
human DLL4-Fc, sequence (Q9NR61 27-522 limits assumed): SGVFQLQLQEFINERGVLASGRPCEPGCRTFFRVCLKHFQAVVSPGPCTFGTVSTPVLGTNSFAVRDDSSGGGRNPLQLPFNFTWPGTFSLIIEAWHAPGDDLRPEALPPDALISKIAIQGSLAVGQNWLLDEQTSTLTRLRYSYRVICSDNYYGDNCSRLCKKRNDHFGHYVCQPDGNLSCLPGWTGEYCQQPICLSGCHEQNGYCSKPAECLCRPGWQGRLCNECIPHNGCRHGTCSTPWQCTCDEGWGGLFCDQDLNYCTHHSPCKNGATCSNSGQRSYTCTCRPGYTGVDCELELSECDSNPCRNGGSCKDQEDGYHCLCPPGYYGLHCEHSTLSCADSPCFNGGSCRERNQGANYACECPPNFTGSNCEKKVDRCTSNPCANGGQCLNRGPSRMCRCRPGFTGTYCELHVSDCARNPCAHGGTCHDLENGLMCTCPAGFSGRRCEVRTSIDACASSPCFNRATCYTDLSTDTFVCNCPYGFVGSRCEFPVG
Protocol: The KDs of parental antibodies anti-VEGF 219R45 (IgG format), anti-DLL4 21R79 (IgG format), anti-DLL4 21M18 (IgG format) and bispecific antibodies 219R45-MB-21M18 and 219R45-MB-21R79 were determined using a Biacore 2000 system from Biacore LifeSciences (GE Healthcare). Recombinant human DLL4-Fc or mouse DLL4-Fc proteins were immobilized on CM5 carboxyl chips using standard amine-based chemistry (NHS/EDC) and blocked with ethanolamine. Recombinant human VEGF165 or mouse VEGF165 were biotinylated and immobilized on streptavidin chips. The antibodies were serially diluted 2-fold from 100 nM to 0.78 nM in HBS-P (0.01M HEPES pH7.4, 0.15M NaCl, 0.005% v/v Polysorbate 20). For each antibody, all 8 dilutions were sequentially injected over a specific chip. Kinetic data were collected over time and were fit using the simultaneous global fit equation to yield affinity constants (KD values) for each bispecific antibody.
Several additional anti-DLL4 antibodies were identified that had binding affinities intermediate to the KDs of 21M18 and 21R79. Two of these anti-DLL4 antibodies were used to produce anti-VEGF/anti-DLL4 bispecific antibodies 219R45-MB-21R75 and 219R45-MB-21R83. Using the Biacore 2000 system as described above, the KDs of the bispecific antibodies 219R45-MB-21R75 and 219R45-MB-21R83 to human DLL4 were determined.

[1] = Non-GLP toxicity study in cynomolgus monkeys; assay type: in vivo; conditions: after 15 weeks
Protocol: A non-GLP toxicity study in cynomolgus monkeys was initiated to evaluate and compare the toxicity profile of some of the bispecific antibodies. The animals were dosed with 0 mg/kg (control), 5 mg/kg (low dose), or 30 mg/kg (high dose) of anti-DLL4/anti-VEGF bispecific antibody (219R45-MB-21M18, 219R45-MB-21R83, or 219R45-MB-21R79) every 2 weeks via IV infusion. 3 males and 3 females were dosed in each group. After 15 weeks, mean body weights were lower in animals receiving the high dose of 219R45-MB-21R79 than in animals that received the high dose of either […] or 219R45-MB-21R83. In addition, mean serum albumin levels were lower in animals that received 219R45-MB-21R79 than in those that received either […] or 219R45-MB-21R83.

VEGF and DLL4 = VEGF and DLL4 (Homo sapiens, UniProt P15692+Q9NR61); assay: Bispecific antibody ELISA; assay type: binding; parameters: purchased ATGEN, South Korea
Protocol: FIG. 7. Bispecific antibody ELISA. Bispecific antibodies 219R45-MB-21M18, 219R45-MB-21R79, 219R45-MB-21R75, and 219R45-MB-21R83 were diluted in blocking buffer (1× PBS, 0.1% gelatin, 0.1% Polysorbate-20, pH 7.4) containing 2 μg/ml biotin-DLL4-hFc. The antibodies were serially diluted 3-fold from 500 ng/ml to 0.008 ng/ml. The antibody samples were incubated for 2 hours in blocking buffer containing the biotin-DLL4-hFc. After incubation, the antibody samples were transferred to a VEGF-coated assay plate (100 ul/well) and incubated for 2 hours. Streptavidin-HRP was added to each well and incubated for 1 hr. TMB substrate was added to the wells with a 10 minute color development and the reaction was stopped with 2M sulfuric acid. Absorbance was read at 450-650 nm and the data analyzed using the 4-parameter fit within the Softmax Pro analysis program.
VEGF (ATGEN, South Korea) was coated onto Nunc maxisorb plates at 2 ug/ml (100 μl/well) and incubated overnight at 2-8° C. Bispecific antibodies 219R45-MB-21M18, 219R45-MB-21R79, 219R45-MB-21R75, and 219R45-MB-21R83 were diluted in blocking buffer (1× PBS, 0.1% gelatin, 0.1% Polysorbate-20, pH 7.4) containing 2 μg/ml biotin-DLL4-hFc. […] Absorbance was read at 450-650 nm and the data analyzed using the 4-parameter fit within the Softmax Pro analysis program (Molecular Devices, Sunnyvale, Calif.).

Row | Molecule | frequency of cancer stem cells in xenograft tumor models (xenograft tumor models) | tumor growth in xenograft tumor models (xenograft tumor models) | inhibition of tumor growth (bioluminescence) (OMP-C8 colon tumor cells) | stronger binding to human DLL4 than 219R45-MB-21M18 (human DLL4-Fc) | mean serum albumin levels ([1]; every 2 weeks IV infusion) | mean body weights ([1]; high dose 30 mg/kg every 2 weeks IV infusion) | more potent than 219R45-MB-21M18 in bispecific ELISA (VEGF and DLL4)
1 | B1 | reduce the frequency of cancer stem cells | inhibit tumor growth | inhibited tumor growth | – | – | – | –
2 | B2 | – | – | – | approximately 30 fold | lower | lower | about 7 fold
3 | B3 | – | – | more effective than either the anti-DLL4 antibody or the anti-VEGF antibody alone | – | – | – | –
